Source: patent publication CN111875704A (BAI XIANHONG, dated 2020)

Key:
[1] = molecular target: T1, 带有His6标签的EGFR胞外区蛋白 (EGFR extracellular domain with His6 tag) (UniProt P00533 25-645, limits assumed); experiment: SPR, BIACORE X100 PLUS; ratio of KD against the reference mR3
T1 construct: extracellular domain; also called EGFR保外区蛋白; 抗原; not shown: His6 tag

[2] = molecular target: T1, 带有His6标签的EGFR胞外区蛋白 (EGFR extracellular …); experiment: monoclonal scFv-phage ELISA on coated antigen at 1 μg/ml, Anti-M13 HRP, OD450

| Binder | fold improvement of affinity against mR3 [1] | binding result [2] |
| --- | --- | --- |
| 24H7 全长抗体 (full-length anti-EGFR antibody, IgG1/kappa) (antibody, V domains shown, also called 全长24H7抗体) VH: QVQLQQPGAELVKPGASVKLSCKASGYTFTNYYIYWFKQRPGQGLEWIGGINPTSGGSNFNEKFKTKATLTVDESSTTAYMQLSSLTSEDSAVYYCTRQGLWFDSDGRGFDFWGQGTTLTVSS VL: DVLMTQIPLSLPVSLGDQASISCRSSQNIVHSNGNTYLDWYLQKPGQSPNLLIYKVSNRFSGVPDRFRGSGSGTDFTLKISRVEAEDLGVYYCFQYSHVPWTFGGGTKLEIKR | 10 倍 | – |
| 24H7 scFv (单克隆scFv噬菌体抗体) (scFv, The phage coat protein fusion is not described) scFv: QVQLQQPGAELVKPGASVKLSCKASGYTFTNYYIYWFKQRPGQGLEWIGGINPTSGGSNFNEKFKTKATLTVDESSTTAYMQLSSLTSEDSAVYYCTRQGLWFDSDGRGFDFWGQGTTLTVSSGGGGSGGGGSGGGGSDVLMTQIPLSLPVSLGDQASISCRSSQNIVHSNGNTYLDWYLQKPGQSPNLLIYKVSNRFSGVPDRFRGSGSGTDFTLKISRVEAEDLGVYYCFQYSHVPWTFGGGTKLEIKRGQAGQHHHHHH | – | binds |
